Read-outs that look alike come from different tables or passages of the source.
Legend:
Experiment in all cases: split reporter
[1] = biological target: SmBiT-CHIP
[2] = biological target: SmBiT-CHIP; remark: listed apart in the source
[3] = biological target: SmBiT-CHIP K30A
[4] = biological target: SmBiT-CHIP-FLAG
Sequence of SmBiT-CHIP-FLAG (Q9UNE7 whole entry): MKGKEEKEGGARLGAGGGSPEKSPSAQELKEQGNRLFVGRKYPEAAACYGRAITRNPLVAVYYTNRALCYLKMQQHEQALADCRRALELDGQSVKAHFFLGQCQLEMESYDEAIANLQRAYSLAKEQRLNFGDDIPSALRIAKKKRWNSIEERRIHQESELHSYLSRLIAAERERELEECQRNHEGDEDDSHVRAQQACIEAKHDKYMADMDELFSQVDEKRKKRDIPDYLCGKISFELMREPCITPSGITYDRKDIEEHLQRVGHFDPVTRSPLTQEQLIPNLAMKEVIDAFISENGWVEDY

Sequence of SmBiT-CHIP (Q9UNE7 whole entry): as above

| fold increase in luminescence over the negative control [1] | fold increase in luminescence over the negative control [2] | fold increase in luminescence over the negative control [3] | luminescence with dox [4] | Binder |
| --- | --- | --- | --- | --- |
| 300 fold |  |  |  | GGSGLWWPD [LgBiT-LWWPD] |
| 180 fold | 160 to 180 fold | 97 fold |  | GGSGIEEVD [LgBiT-IEEVD] |
|  |  |  | 47300 RLU | GGSGIEEVD [myc-LgBiT-IEEVD] |

Source: paper PMC8054679
